Data taken from paper PMC5013389, “Competition between members of the tribbles pseudokinase protein family shapes their interactions with mitogen activated protein kinase pathways” (Scientific Reports, 2016).

Biological target: T1, MKK4-V1 (full length MKK4 fused to the V1 fragment of Venus YFP) (UniProt P45985 1-399)
T1 construct: source: HeLa, transfected, in live cells; not shown: Venus YFP fragment V1, C-terminal, kept
T1 sequence (looked up): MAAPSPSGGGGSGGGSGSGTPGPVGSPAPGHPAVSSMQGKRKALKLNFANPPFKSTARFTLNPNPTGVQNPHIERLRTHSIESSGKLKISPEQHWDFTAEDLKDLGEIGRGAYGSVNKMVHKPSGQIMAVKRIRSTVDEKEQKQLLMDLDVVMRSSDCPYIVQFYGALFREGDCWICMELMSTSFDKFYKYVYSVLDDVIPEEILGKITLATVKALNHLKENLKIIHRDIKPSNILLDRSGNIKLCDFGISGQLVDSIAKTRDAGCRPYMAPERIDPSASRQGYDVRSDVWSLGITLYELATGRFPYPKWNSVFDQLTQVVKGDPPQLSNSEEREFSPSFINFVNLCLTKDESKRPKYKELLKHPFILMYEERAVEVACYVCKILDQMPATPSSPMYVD
Test: split reporter (BiFC, NanoBiT); competitive PCA in HeLa cells: MKK-V1 and TRIB-V2 co-transfected with an increasing dose of an untagged competitor plasmid (ERK, p38 or TRIB); mean fluorescence by flow cytometry 24 h after transfection; doses are plasmid amounts relative to TRIB-V2
Details: partners not purified

fold affinity to MKK4 relative to TRIB2: ~15 fold
B1: untagged TRIB-3 (natural protein, UniProt Q96RU7 1-358, looked up)
chain: MRATPLAAPAGSLSRKKRLELDDNLDTERPVQKRARSGPQPRLPPCLLPLSPPTAPDRATAVATASRLGPYVLLEPEEGGRAYQALHCPTGTEYTCKVYPVQEALAVLEPYARLPPHKHVARPTEVLAGTQLLYAFFTRTHGDMHSLVRSRHRIPEPEAAVLFRQMATALAHCHQHGLVLRDLKLCRFVFADRERKKLVLENLEDSCVLTGPDDSLWDKHACPAYVGPEILSSRASYSGKAADVWSLGVALFTMLAGHYPFQDSEPVLLFGKIRRGAYALPAGLSAPARCLVRCLLRREPAERLTATGILLHPWLRQDPMPLAPTRSHLWEAAQVVPDGLGLDEAREEEGDREVVLYG
notes: TRIB3, untagged expression plasmid; also called unlabelled tribbles; untagged tribbles; source: HeLa, transfected, in live cells
